Measured values: patent publication US20110184152A1 (published 2011)
Changes are numbered by the printed parent chain. Numbers in names are those of the source.

What was measured:
IL-1β = biological target: T1, IL-1β; experiment: SPR (Biacore), construct captured, IL-1β injected
T1 construct: also called IL-1 beta
Description: (§1) Covalent immobilisation of the capture antibody was achieved by standard amine coupling chemistry.
Kinetic parameters were determined by simultaneous global-fitting of the resulting sensorgrams to a standard 1:1 binding model using Biacore T100 Evaluation software.

human serum albumin [1] = biological target: T2, human serum albumin (human, UniProt P02768 25-609); experiment: SPR (Biacore), construct captured, HSA injected
T2 construct: also called HSA; HumanSA

mouse serum albumin [2] = biological target: T3, mouse serum albumin (mouse, UniProt P07724 25-608); experiment: SPR (Biacore), purified construct
T3 construct: also called MSA; MurineSA

human serum albumin [3] = biological target: T2, human serum albumin; experiment: SPR (BIAcore)
rat serum albumin = biological target: T4, rat serum albumin (rat, UniProt P02770 25-608); experiment: affinity as humanised IgG; method not named
T4 construct: also called RatSA

human serum albumin [4] = biological target: T2, human serum albumin; experiment: affinity as humanised IgG; method not named
mouse serum albumin [5] = biological target: T3, mouse serum albumin; experiment: affinity as humanised IgG; method not named
human serum albumin [6] = biological target: T2, human serum albumin; experiment: SPR (Biacore), construct captured from HEK293 supernatant, HSA injected
human serum albumin [7] = biological target: T2, human serum albumin; experiment: SPR (Biacore), purified construct
mouse serum albumin [8] = biological target: T3, mouse serum albumin; experiment: SPR (Biacore), purified construct; remark: listed apart in the source
human serum albumin [9] = biological target: T2, human serum albumin; experiment: SPR (Biacore), running buffer pH6.0; pH 6
human serum albumin [10] = biological target: T2, human serum albumin; experiment: SPR (Biacore), purified construct; remark: listed apart in the source
human serum albumin [11] = biological target: T2, human serum albumin; experiment: SPR (Biacore), running buffer pH5.0; pH 5
Excerpt: as §1

human serum albumin [12] = biological target: T2, human serum albumin; experiment: SPR (Biacore), running buffer pH7.0; pH 7
Excerpt: as §1

human serum albumin [13] = biological target: T2, human serum albumin; experiment: SPR (Biacore), running buffer pH5.5; pH 5.5
Excerpt: as §1

B1: Fab′A (Fab, V domains shown)
VH: EVQLVESGGGLVQPGGSLRLSCAFSGFSLSTSGVGVGWVRQAPGKGLEWVAHIWWDGDESYNPSLKTQFTISKDTSKNTVYLQMNSLRAEDTAVYYCARNRYDPPWFVDWGQGTLVTVSS
VL: DIQMTQSPSSLSASVGDRVTITCRASQDISNYLSWYQQKPGKAPKLLIYYTSKLHSGVPSRFSGSGSGTDYTLTISSLQPEDFATYYCQQGKMLPWTFGQGTKVEIKR
Q: Which results are given for B1?
A: Kd (IL-1β): 0.32 nM; koff (IL-1β): 6.46e-05 s⁻¹; kon (IL-1β): 202000 M⁻¹ s⁻¹

B2: FabA (Fab, V domains shown)
VH: B1 VH
VL: B1 VL
Q: Does B2 bind (human serum albumin [1])?
A: no binding

B3: FabB-didAb, -dAbL2 (CK-G4Sx2) & dAbH2 (CH1-G4Sx2) (bispecific antibody)
heavy: ASTKGPSVFPLAPSSKSTSGGTAALGCLVKDYFPEPVTVSWNSGALTSGVHTFPAVLQSSGLYSLSSVVTVPSSSLGTQTYICNVNHKPSNTKVDKKVEPKSCGGGGSGGGGSEVQLVESGGGLVQPGGSLRLSCAVSGFSLSRYAMTWVRQAPGKGLEWIGTITTGGNTNYANWAKGRFTISKDSTTVYLQMNSLRAEDTAVYYCARGGYVSYADATELSLWGQGTLVTVSS
light: RTVAAPSVFIFPPSDEQLKSGTASVVCLLNNFYPREAKVQWKVDNALQSGNSQESVTEQDSKDSTYSLSSTLTLSKADYEKHKVYACEVTHQGLSSPVTKSFNRGECGGGGSGGGGSDIVMTQSPSTLSASVGDRVTITCQASQSIGSRLAWYQQKPGKAPKLLIYYASTVASGVPSRFKGSGSGTEFTLTISSLQPDDFATYYCQSYDYSSSSSYAFGGGTKVEIK
notes: also called FabB-648Fv (G4Sx2); FabB-648Fv (2xG4S)
Q: How did the Kd (mouse serum albumin [2]) turn out when B3 was run?
A: 42.4 nM

B4: FabB-645dsFv (S3×G4S), Fv heavy mutation Y100cA (bispecific antibody, V domains shown)
VH: EVQLLESGGGLVQPGGSLRLSCAVSGIDLSNYAINWVRQAPGKCLEWIGIIWASGTTFYATWAKGRFTISRDSTTVYLQMNSLRAEDTAVYYCARTVPGYSTAPAFDLWGQGTLVTVSS
VL: DIVMTQSPSSVSASVGDRVTITCQSSPSVWSNFLSWYQQKPGKAPKLLIYEASKLTSGVPSRFKGSGSGTDFTLTISSLQPEDFATYYCGGGYSSISDTTFGCGTKVEIK
Q: How did the Kd (human serum albumin [3]) turn out when B4 was run?
A: 87 nM

Q: What about the koff (human serum albumin [3]) of the same binder?
A: 0.00107 s⁻¹

Q: What about the kon (human serum albumin [3]) of the same binder?
A: 12300 M⁻¹ s⁻¹

B5: Antibody 1 (Antibody 645) as humanised IgG (antibody, V domains shown)
VH: B4 VH with C44G, A105Y
VL: B4 VL with C103G
notes: tested as humanised IgG; one grafted VH and one grafted VL were designed for this antibody
Q: What does the source list for B5?
A: Kd (rat serum albumin): 7.9 nM; Kd (human serum albumin [4]): 0.82 nM; Kd (mouse serum albumin [5]): 2.9 nM

B6: Antibody 2 (Antibody 648) as humanised IgG (antibody, V domains shown)
VH: EVQLVESGGGLVQPGGSLRLSCAVSGFSLSRYAMTWVRQAPGKGLEWIGTITTGGNTNYANWAKGRFTISKDSTTVYLQMNSLRAEDTAVYYCARGGYVSYADATELSLWGQGTLVTVSS
VL: DIVMTQSPSTLSASVGDRVTITCQASQSIGSRLAWYQQKPGKAPKLLIYYASTVASGVPSRFKGSGSGTEFTLTISSLQPDDFATYYCQSYDYSSSSSYAFGGGTKVEIK
notes: as for B5
Q: Which results are given for B6?
A: Kd (rat serum albumin): 54 nM; Kd (mouse serum albumin [5]): 23 nM

B7: FabB-didAb, -dAbL1 (CK-G4Sx2) & dAbH1 (CH1-G4Sx2) (bispecific antibody)
heavy: ASTKGPSVFPLAPSSKSTSGGTAALGCLVKDYFPEPVTVSWNSGALTSGVHTFPAVLQSSGLYSLSSVVTVPSSSLGTQTYICNVNHKPSNTKVDKKVEPKSCGGGGSGGGGSEVQLLESGGGLVQPGGSLRLSCAVSGIDLSNYAINWVRQAPGKGLEWIGIIWASGTTFYATWAKGRFTISRDSTTVYLQMNSLRAEDTAVYYCARTVPGYSTAPYFDLWGQGTLVTVSS
light: RTVAAPSVFIFPPSDEQLKSGTASVVCLLNNFYPREAKVQWKVDNALQSGNSQESVTEQDSKDSTYSLSSTLTLSKADYEKHKVYACEVTHQGLSSPVTKSFNRGECGGGGSGGGGSDIVMTQSPSSVSASVGDRVTITCQSSPSVWSNFLSWYQQKPGKAPKLLIYEASKLTSGVPSRFKGSGSGTDFTLTISSLQPEDFATYYCGGGYSSISDTTFGGGTKVEIK
notes: also called FabB-645Fv (G4Sx2); FabB-645Fv (2xG4S)
Q: Which results are given for B7?
A: Kd (human serum albumin [6]): 9 nM; koff (human serum albumin [6]): 0.00016 s⁻¹; kon (human serum albumin [6]): 17800 M⁻¹ s⁻¹; Kd (human serum albumin [7]): 6.72 nM; Kd (mouse serum albumin [8]): 8.01 nM; Kd (human serum albumin [9]): 12.5 nM; Kd (human serum albumin [10]): 17.5 nM; Kd (mouse serum albumin [2]): 24.7 nM; Kd (human serum albumin [11]): 7.1 nM; Kd (human serum albumin [12]): 13.3 nM; Kd (human serum albumin [13]): 10.7 nM
